Measured values reported in patent US5849890, “High affinity oligonucleotide ligands to chorionic gonadotropin hormone and related glycoprotein hormones” (NeXstar Pharmaceuticals, Inc.).

Assays:
[1] = target: T1, human chorionic gonadotropin (hCG) heterodimer (Homo sapiens, UniProt P01215;P0DN86 P01215:25-116,P0DN86:21-165); test: filter; 17.2% bound at 100 nM; details: tags: Calbiochem or Vitro Diagnostics (14,000 IU/mg); chain copies: alpha/beta heterodimer (stated); label: 32P; hairpin
[2] = target: T1, human chorionic gonadotropin (hCG) …; test: filter; +/- 3 nM (Table 5); details: tags: Calbiochem or Vitro Diagnostics (14,000 IU/mg); chain copies: alpha/beta heterodimer (stated); label: 32P; G4 (RNase T1 protection in K+)
[3] = target: T1, human chorionic gonadotropin (hCG) …; test: filter; conserved region mutated; details: tags: Calbiochem or Vitro Diagnostics (14,000 IU/mg); chain copies: alpha/beta heterodimer (stated); label: 32P
Source text: (§1) PCR products generated from the RNA population isolated after six cycles of selection were cloned into pUC18 and 43 clones were sequenced (Table 13). As with the high affinity ligands selected in the first SELEX experiment in this example, 37 of the sequenced ligands are capable of assuming a stem-loop structure which places the conserved, unselected, 13-nt sequence in the "loop" structure.

[4] = target: T2, human thyroid stimulating hormone (hTSH) (Homo sapiens, UniProt P01215;P01222 P01215:25-116,P01222:21-132); test: filter; not pH sensitive, pH 5.8-7.2; details: tags: Becton Dickinson; chain copies: alpha/beta heterodimer (inferred); label: 32P; possible hairpin; no G4 by RNase T1
[5] = target: T3, human follicle stimulating hormone (hFSH) (Homo sapiens, UniProt P01215;P01225 P01215:25-116,P01225:19-129); test: filter; details: tags: Becton Dickinson; chain copies: alpha/beta heterodimer (inferred); label: 32P; possible hairpin; no G4 by RNase T1
[6] = target: T4, human luteinizing hormone (hLH) (Homo sapiens, UniProt P01215;P01229 P01215:25-116,P01229:21-141); test: filter; details: tags: Becton Dickinson (2'-NH2 work); Scripps/Vitro Diagnostics (2'-F work); chain copies: alpha/beta heterodimer (inferred); label: 32P; G4 (RNase T1 protection in K+)
Procedure: (§2) Internally-labeled RNA transcripts were prepared by including [α-^32P]ATP in T7 RNA polymerase transcription reactions. Full-length transcripts were purified on 8% denaturing polyacrylamide gels to ensure size homogeneity. Gel-purified RNA was diluted to a concentration of ~5 nM in TEM buffer, heated to 80° C. then chilled on ice to facilitate secondary structure formation. RNA concentrations were kept lower than 100 pM in binding reactions. Briefly, equal amounts of RNA were incubated with varying amounts of hormone in 50 μL of TEM buffer for 10 minutes at 37° C. RNA-protein mixtures were passed through pre-wet nitrocellulose filters (0.2μ), and the filters were immediately washed with 5 mL of binding buffer. Radioactivity retained on filters was determined by liquid scintillation counting. The quantities of RNA bound to filters in the absence of protein was determined and used for background correction. The percentage of input RNA retained on each filter was plotted against the corresponding log protein concentration. The nonlinear least square method was used to obtain the dissociation constant (K_d) (Jellinek et al. (1993) Proc. Natl. Acad. Sci. U.S.A. 90:11227–11231; Irvine et al. (1991) J. Mol. Biol. 222:739–761).
(§3) By incorporating a counterselection step, SELEX allowed the isolation of hCG-specific RNA ligands (Example 5, infra).

[7] = target: T1, human chorionic gonadotropin (hCG) …; test: filter; 5.8 +/- 2.8 nM in Table 5; details: tags: Calbiochem or Vitro Diagnostics (14,000 IU/mg); chain copies: alpha/beta heterodimer (stated); label: 32P; G4 (RNase T1 protection in K+)
[8] = target: T1, human chorionic gonadotropin (hCG) …; test: filter; SBB buffer; details: tags: Calbiochem or Vitro Diagnostics (14,000 IU/mg); chain copies: alpha/beta heterodimer (stated); label: 32P; hairpin
[9] = target: T1, human chorionic gonadotropin (hCG) …; test: filter; in urine; details: tags: Calbiochem or Vitro Diagnostics (14,000 IU/mg); chain copies: alpha/beta heterodimer (stated); label: 32P; hairpin
[10] = target: T1, human chorionic gonadotropin (hCG) …; test: filter; details: tags: Calbiochem or Vitro Diagnostics (14,000 IU/mg); chain copies: alpha/beta heterodimer (stated); label: 32P
[11] = target: T1, human chorionic gonadotropin (hCG) …; test: filter; +/- 13 nM; details: tags: Calbiochem or Vitro Diagnostics (14,000 IU/mg); chain copies: alpha/beta heterodimer (stated); label: 32P; intramolecular G4
Procedure: as §2

[12] = target: glycoprotein hormone common alpha-subunit (UniProt P01215 P01215:25-116); test: filter; details: tags: UCB-bioproducts; label: 32P
Procedure: as §2, §3

hCG beta-subunit = hCG beta-subunit (Homo sapiens, UniProt P0DN86 P0DN86:21-165); test: filter; details: tags: Calbiochem or Vitro Diagnostics; label: 32P
Procedure: as §2, §3

[13] = target: T4, human luteinizing hormone (hLH); test: filter; Mg, pH 6.5; <2-fold change at pH 7.0; details: tags: Becton Dickinson (2'-NH2 work); Scripps/Vitro Diagnostics (2'-F work); chain copies: alpha/beta heterodimer (inferred); label: 32P
[14] = target: T1, human chorionic gonadotropin (hCG) …; test: filter; Mg, pH 6.5; Kd rises >25-fold at pH 7.0; details: tags: Calbiochem or Vitro Diagnostics (14,000 IU/mg); chain copies: alpha/beta heterodimer (stated); label: 32P
[15] = target: T1, human chorionic gonadotropin (hCG) …; test: filter; details: tags: Calbiochem or Vitro Diagnostics (14,000 IU/mg); chain copies: alpha/beta heterodimer (stated); label: 32P; two hairpins
[16] = target: T1, human chorionic gonadotropin (hCG) …; test: filter; no significant stem; details: tags: Calbiochem or Vitro Diagnostics (14,000 IU/mg); chain copies: alpha/beta heterodimer (stated); label: 32P
Source text: as §1

[17] = target: T1, human chorionic gonadotropin (hCG) …; test: filter; TEM or TESM, 2.1 mM Mg, pH 6.5, 37 C; details: tags: Calbiochem or Vitro Diagnostics (14,000 IU/mg); chain copies: alpha/beta heterodimer (stated); label: 32P; G4 (RNase T1 protection in K+)
Procedure: as §2, §3

[18] = target: T3, human follicle stimulating hormone …; test: filter; Mg, pH 6.5; details: tags: Becton Dickinson; chain copies: alpha/beta heterodimer (inferred); label: 32P; G4 (RNase T1 protection in K+)
Procedure: as §2, §3

[19] = target: T2, human thyroid stimulating hormone (hTSH); test: filter; Mg, pH 6.5; details: tags: Becton Dickinson; chain copies: alpha/beta heterodimer (inferred); label: 32P; G4 (RNase T1 protection in K+)
Procedure: as §2, §3

[20] = target: T4, human luteinizing hormone (hLH); test: filter; Mg, pH 6.5; details: tags: Becton Dickinson (2'-NH2 work); Scripps/Vitro Diagnostics (2'-F work); chain copies: alpha/beta heterodimer (inferred); label: 32P; G4 (RNase T1 protection in K+)
Procedure: as §2, §3

[21] = target: T1, human chorionic gonadotropin (hCG) …; test: filter; +/- 9 nM; details: tags: Calbiochem or Vitro Diagnostics (14,000 IU/mg); chain copies: alpha/beta heterodimer (stated); label: 32P; intramolecular G4
Procedure: as §2

T4 sequence (P01215 25-116, chain 1 of 2): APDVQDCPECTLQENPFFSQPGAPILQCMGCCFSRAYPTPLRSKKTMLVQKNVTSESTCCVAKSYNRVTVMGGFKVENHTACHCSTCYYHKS
T4 sequence (P01229 21-141, chain 2 of 2): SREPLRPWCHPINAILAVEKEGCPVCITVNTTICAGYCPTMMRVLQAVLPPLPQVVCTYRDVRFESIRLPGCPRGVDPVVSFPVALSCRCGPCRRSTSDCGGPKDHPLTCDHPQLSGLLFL
T1 sequence (P01215 25-116, chain 1 of 2, other chains not shown): as the sequence (P01215 25-116, chain 1 of 2) above
T2 sequence (P01215 25-116, chain 1 of 2): as above
T2 sequence (P01222 21-132, chain 2 of 2): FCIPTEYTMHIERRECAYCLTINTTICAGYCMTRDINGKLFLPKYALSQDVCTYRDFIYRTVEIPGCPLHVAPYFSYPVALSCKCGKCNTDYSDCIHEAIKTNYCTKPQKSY
T3 sequence (P01215 25-116, chain 1 of 2): as the sequence (P01215 25-116, chain 1 of 2) above
T3 sequence (P01225 19-129, chain 2 of 2): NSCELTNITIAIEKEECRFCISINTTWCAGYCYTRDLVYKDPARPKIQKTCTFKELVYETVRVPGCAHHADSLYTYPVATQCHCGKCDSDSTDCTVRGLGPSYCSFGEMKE
Chain of glycoprotein hormone common alpha-subunit (P01215 25-116, one chain of several): as the sequence (P01215 25-116, chain 1 of 2) above

B1: 2nd generation ligand 18 (ssRNA)
RNA: GGGAGGACGAUGCGGCAUUCGCUGAUUCUUGAACGAUCCUUGAUGAUGUGGAUGCAGACGACUCGCCCGA
modifications: 2'-F all pyrimidines
With B1 the Kd [1] was 150 nM.

B2: H-17 (ssRNA)
RNA: GGGAGGACGAUGCGGAGGGAACGCGGAGGGGUGUGUCCCCCAGACUACAAGGCGGCAGACGACUCGCCCGA
modifications: 2'-NH2 all pyrimidines
With B2 the Kd [2] was 7.5 nM.

B3: 2nd generation ligand 95 (ssRNA)
RNA: GGGAGGACGAUGCGGGUUUUCCUACUAGUUGAAUGAUCCUUCUAGUUAGAUGCCAGACGACUCGCCCGA
modifications: 2'-F all pyrimidines
B3 showed a binding signal [3] of 1.57 % bound at 100 nM.

B4: 2nd generation ligand 7 (ssRNA)
RNA: GGGAGGACGAUGCGGAUGAGCUUGAUAAUGGAACGAUCCUUUUAACGGUUCUUCCAGACGACUCGCCCGA
modifications: 2'-F all pyrimidines
Work on B4 yielded a binding signal [3] of 0 % bound at 100 nM.

B5: 2nd generation ligand 84 (ssRNA)
RNA: GGGAGGACGAUGCGGUUGGUUAUCCAUGUUGAACGUUCCUUCAUGUCGAAUAUGCAGACGACUCGCCCGA
modifications: 2'-F all pyrimidines
Work on B5 yielded a binding signal [3] of 0.24 % bound at 100 nM.

B6: 2nd generation ligand 37 (ssRNA)
RNA: GGGAGGACGAUGCGGAAUUCCCCCAAGAUUGAACGGUCCUUUCUCGCAGAUGUUCAGACGACUCGCCCGA
modifications: 2'-F all pyrimidines
B6 was tested, and the binding signal [3] was 0 % bound at 100 nM.

B7: T-15 (ssRNA)
RNA: GGGAGGACGAUGCGGAUGUUGGCAGCAGGGUCCGACGGCGUAACCUUGCCAGCUGCAGACGACUCGCCCGA
modifications: 2'-NH2 all pyrimidines
With B7 the Kd [4] was 14 nM and the Kd [5] was about 200 nM.

B8: H-25 (ssRNA)
RNA: GGGAGGACGAUGCGGAAAGGAGGAGGCUGGGUGCGUCAAGAGUUCUCCCGAGCGCCAGACGACUCGCCCGA
modifications: 2'-NH2 all pyrimidines
In the case of B8, the Kd [6] is reported as 17.5 nM and the Kd [7] is reported as 6 nM.

B9: 2nd generation ligand 8 (ssRNA)
RNA: GGGAGGACGAUGCGGUUCGAUUCCAAGUUGAACGAUCCUCCUUUUGAUUAGACCAGACGACUCGCCCGA
modifications: 2'-F all pyrimidines
B9 gave a binding signal [3] of 0.73 % bound at 100 nM.

B10: hCG ligand 9TR1 (ssRNA)
RNA: GGGAGUCUCGUUGGUCGUUGAACGAUCCUUCGACAGGAGGCUCA
modifications: 2'-F all pyrimidines
With B10 the Kd [8] was 200 nM and the Kd [9] was 100 nM.

B11: Class 1 ligand 28 (ssRNA)
RNA: GGGAGACAAGAAUAAACGCUCAAACAGCGAUUGAACGAUCCUUUCAGCUGAUGGGUACGGGAUUCGACAGGAGGCUCACAACAGGC
modifications: 2'-F all pyrimidines
B11 was tested, and the binding signal [10] was 0.58 % bound at 100 nM.

B12: delta17 (ssRNA)
RNA: GGAGGACGAUGCGGAGGGAACGCGGAGGGGUG
modifications: 2'-NH2 all pyrimidines
In the case of B12, the Kd [11] is reported as 25 nM.

B13: 2nd generation ligand 59 (ssRNA)
RNA: GGGAGGACGAUGCGGUAACUCUUAAUUCUUGAACAAUCCUUGAAUUUAGCGGACCAGACGACUCGCCCGA
modifications: 2'-F all pyrimidines
B13 gave a binding signal [3] of 1.88 % bound at 100 nM.

B14: H-42 (ssRNA)
RNA: GGGAGGACGAUGCGGACAAGGGCCUGAGUGUGGAGGGCACGUGGAGGGGACUGGCCAGACGACUCGCCCGA
modifications: 2'-NH2 all pyrimidines
Binder B14 has a Kd [12] of about 1400 nM, a Kd (hCG beta-subunit) of about 200 nM and a Kd [13] of 15 nM. The Kd [14] was 6.2 nM.

B15: ligand 25/9 dimer (ssRNA)
RNA: GGGAGACAAGAAUAAACGCUCAACAGUGAUUGAACGAUCCUUUCAGCUGGUGGGUAUGGUCCCGGAGUCUCGUUGGUCGUUGAACGAUCCUUCGACAGGAGGCUCA
modifications: 2'-F all pyrimidines
In the case of B15, the Kd [15] is reported as about 200 nM.

B16: 2nd generation ligand 76 (ssRNA)
RNA: GGGAGGACGAUGCGGACCGACUAAAUGAUUGAACGAUCCUUAUUGUCUCUAUCACAGACGACUCGCCCGA
modifications: 2'-F all pyrimidines
B16 was tested, and the binding signal [16] was 0.2 % bound at 100 nM.

B17: 2nd generation ligand 82 (ssRNA)
RNA: GGGAGGACGAUGCGGUAACAGUCGAUUCUUGAACGAUCCUUUCCACUUCAACCGCAGACGACUCGCCCGA
modifications: 2'-F all pyrimidines
Binder B17 has a binding signal [16] of 0 % bound at 100 nM.

B18: H-30 (ssRNA)
RNA: GGGAGGACGAUGCGGUACUGUAAAACAAUCUGGAGGAGGGUCUAGGGGAUGGUGGCAGACGACUCGCCCGA
modifications: 2'-NH2 all pyrimidines
B18 gave a Kd [17] of 20 nM, a Kd [18] of about 1700 nM and a Kd [19] of about 1600 nM. For the same binder, the Kd [20] was 51 nM.

B19: delta25 (ssRNA)
RNA: GGAGGACGAUGCGGAAAGGAGGAGGCUGGGUGCGUC
modifications: 2'-NH2 all pyrimidines
Work on B19 yielded a Kd [21] of 24 nM.

B20: 2nd generation ligand 77 (ssRNA)
RNA: GGGAGGACGAUGCGGCAGUGUCAACAUCUUGAACGAUCCUUUUUUUCAGCGCGUCAGACGACUCGCCCGA
modifications: 2'-F all pyrimidines
B20 was tested, and the binding signal [16] was 0.42 % bound at 100 nM.
